For four substances, Ki results are on record in paper PMC4022879.

Experiment [1] deals with bovine pancreatic trypsin (bovine). Description: chromogenic enzyme inhibition assay; 1 nM trypsin, 500 μM S2765, 37 °C, 110 mM Tris-HCl pH 8.0, 250 mM NaCl, 1% BSA; residual activity in triplicate at at least six inhibitor concentrations; Ki from a linear fit of 1/v against inhibitor concentration.
For experiment [2], the target named is activated coagulation factor XI (FXIa). The experiment can be described thus: chromogenic enzyme inhibition assay; 200 pM FXIa, 500 μM S2366, 37 °C, 110 mM Tris-HCl pH 8.0, 250 mM NaCl, 1% BSA; residual activity in triplicate at at least six inhibitor concentrations; Ki from a linear fit of 1/v against inhibitor concentration.
The target in experiment [3] is activated coagulation factor XII (FXIIa). Description: chromogenic enzyme inhibition assay; 1 nM FXIIa, 500 μM S2302, 37 °C, 110 mM Tris-HCl pH 8.0, 250 mM NaCl, 1% BSA; residual activity in triplicate at at least six inhibitor concentrations; Ki from a linear fit of 1/v against inhibitor concentration.

What is called Ki is the dissociation constant of the complex between target and ligand, obtained from inhibition or displacement. Turning to “CHFI-2, synthetic cyclic peptide that resembles the CHFI protease-binding loop (from UniProt P01088 48-73)”, the Ki worked out at 11700 nM in experiment [1] and 94000 nM in experiment [2]. With “CHFI-234 (from UniProt P01088 40-136) (domain or fragment)”, the inhibition constant Ki in experiment [1] worked out at 2.2 nM; in experiment [3] it was 3.2 nM. On to “CHFI-1234 (from UniProt P01088 29-108) (domain or fragment)”, for which the inhibition constant (Ki) in experiment [1] and in experiment [3] was 1 nM each time.

In experiment [3], “CHFI-123 (from UniProt P01088 29-121) (domain or fragment)” yielded a Ki of 116 nM.
